Reference: patent US20240132615A1 (ICHNOS SCIENCES, published 2024)
Substitutions are numbered along the chain they refer to.

T1: recombinant human BCMA protein (Acrobiosystems BCA-H522y) (human, UniProt Q02223 1-54)
T1 construct: bought protein
T1 sequence (looked up): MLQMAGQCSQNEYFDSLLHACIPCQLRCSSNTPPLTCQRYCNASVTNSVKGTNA

B1: Anti-CD38-E2-UCP02-F8 FAB (Fab, V domains shown)
VH: QVQLVQSGAEVKKPGSSVKVSCKASGGSFSNYAIGWVRQAPGQGLEWMGRIIPSLDAGHYAQKFQGRVTITADESTSTAYMELSSLRSEDTAVYYCARGLGYYLYSSYYFDIWGQGTLVTVSS
VL: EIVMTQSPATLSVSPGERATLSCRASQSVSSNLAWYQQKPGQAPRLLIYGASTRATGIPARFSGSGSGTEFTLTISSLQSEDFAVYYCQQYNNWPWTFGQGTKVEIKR
notes: Fab
B2: Anti-CD38-E2-UCP02-G8 FAB (Fab, V domains shown)
VH: B1 VH with S54A, D56G, A57G, G58V
VL: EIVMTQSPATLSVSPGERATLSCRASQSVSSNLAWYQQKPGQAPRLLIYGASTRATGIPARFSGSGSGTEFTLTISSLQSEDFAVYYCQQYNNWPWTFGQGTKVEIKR
notes: Fab
B3: anti-BCMA-UCP01-A10 FAB (Fab, V domains shown)
VH: QVQLVQSGAEVKKPGSSVKVSCKASGYVFSDHIISWVRQAPGQGLEWMGGIIPHGGAPTYAQKFQGRVTITADESTSTAYMELSSLRSEDTAVYYCARDLFDYYPQGFDYWGQGTLVTVSS
VL: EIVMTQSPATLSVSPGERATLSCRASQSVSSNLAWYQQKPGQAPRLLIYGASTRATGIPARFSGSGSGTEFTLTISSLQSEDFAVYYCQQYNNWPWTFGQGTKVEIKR
notes: Fab
B4: anti-BCMA-PP02-A3 FAB (Fab, V domains shown)
VH: EVQLLESGGGLVQPGGSLRLSCAASGFTFSQYAMSWVRQAPGKGLEWVSIISQDGGVTVYADSVKGRFTISRDNSKNTLYLQMNSLRAEDTAVYYCARSPYGGGSYIPHDSWGQGTLVTVSS
VL: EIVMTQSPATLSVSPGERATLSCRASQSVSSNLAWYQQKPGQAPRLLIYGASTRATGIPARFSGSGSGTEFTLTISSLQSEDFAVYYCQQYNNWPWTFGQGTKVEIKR
notes: Fab
B5: Anti-CD38-B3-PP11-A2 FAB (Fab, V domains shown)
VH: QVQLVQSGAEVKKPGSSVKVSCKASGQTTPMYSISWVRQAPGQGLEWMGRIIPTGANANYAQKFQGRVTITADESTSTAYMELSSLRSEDTAVYYCARSWPSLGSGWFDIWGQGTLVTVSS
VL: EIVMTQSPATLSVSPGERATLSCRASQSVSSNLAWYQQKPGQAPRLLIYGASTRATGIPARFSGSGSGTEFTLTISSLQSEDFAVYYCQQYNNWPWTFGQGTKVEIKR
notes: Fab
B6: Anti-CD38-B3-PP11-C11 FAB (Fab, V domains shown)
VH: B5 VH with Q27G, T28D, T29F, P30T, M31L, W100T, S102T, L103Y
VL: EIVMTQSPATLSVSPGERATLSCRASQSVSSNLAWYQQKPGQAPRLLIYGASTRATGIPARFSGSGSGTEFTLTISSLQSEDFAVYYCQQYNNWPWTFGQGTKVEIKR
notes: Fab; also called anti-CD38-B3-C11; B3-C11
B7: Anti-CD38-B3-PP11-E1 FAB (Fab, V domains shown)
VH: B5 VH with T28H, T29K, P30R, M31V
VL: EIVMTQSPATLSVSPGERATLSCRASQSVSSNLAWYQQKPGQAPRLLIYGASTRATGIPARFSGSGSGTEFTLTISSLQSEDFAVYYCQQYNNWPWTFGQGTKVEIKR
notes: Fab
B8: Anti-CD38-B3-PP11-H1a FAB (Fab, V domains shown)
VH: B5 VH with T28N, T29E, P30R
VL: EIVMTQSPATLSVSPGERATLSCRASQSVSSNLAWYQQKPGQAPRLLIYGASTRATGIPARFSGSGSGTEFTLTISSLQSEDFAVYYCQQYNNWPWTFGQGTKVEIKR
notes: Fab
B9: Anti-CD38-B3-PP11-H10 FAB (Fab, V domains shown)
VH: B5 VH with Q27G, T28D, T29F, P30T, M31L, S102H, L103Y
VL: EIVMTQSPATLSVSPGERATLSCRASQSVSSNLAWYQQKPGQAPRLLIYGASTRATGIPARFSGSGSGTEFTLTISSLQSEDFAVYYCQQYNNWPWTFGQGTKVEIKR
notes: Fab
B10: Anti-CD38-B3-PP11-D1b FAB (Fab, V domains shown)
VH: B5 VH with Q27I, T28Q, P30R, M31W
VL: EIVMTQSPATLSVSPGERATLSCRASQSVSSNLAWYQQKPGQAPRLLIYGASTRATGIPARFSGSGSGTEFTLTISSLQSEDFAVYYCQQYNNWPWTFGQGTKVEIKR
notes: Fab
B11: Anti-CD38-B3-PP11-D1a FAB (Fab, V domains shown)
VH: B5 VH with Q27M, T28Q, P30R, M31W
VL: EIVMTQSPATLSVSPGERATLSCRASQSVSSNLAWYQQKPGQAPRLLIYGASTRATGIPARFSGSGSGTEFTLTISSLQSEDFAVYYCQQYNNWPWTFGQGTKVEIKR
notes: Fab
B12: Anti-CD38-B3-PP11-E11 FAB (Fab, V domains shown)
VH: B5 VH with Q27G, T28D, T29F, P30T, M31L, L103Y, S105K
VL: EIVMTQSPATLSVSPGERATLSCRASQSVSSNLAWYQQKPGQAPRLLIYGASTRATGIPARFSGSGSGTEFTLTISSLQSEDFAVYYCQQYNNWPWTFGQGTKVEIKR
notes: Fab
B13: Anti-CD38-B3-PP11-D11a FAB (Fab, V domains shown)
VH: B5 VH with Q27G, T28D, T29F, P30T, M31L, S102I, S105N
VL: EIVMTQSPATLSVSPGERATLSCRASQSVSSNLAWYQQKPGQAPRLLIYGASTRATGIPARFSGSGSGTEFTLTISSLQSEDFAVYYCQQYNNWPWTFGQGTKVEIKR
notes: Fab

Experiments:
[1] = biological target: T2, Biotinylated Human CD38 Protein, Avitag, His Tag (Acrobiosystems CD8-H82E7) (human, UniProt P28907 43-300, biotinylated); experiment: SPR, Fab as analyte, biotin-captured human CD38
T2 construct: bought protein; also called biotinylated recombinant human CD38 protein; human CD38-avi-his
Protocol: (§1) Measurements were performed at 25° C. on a Biacore T200 instrument (Cytiva Life Sciences) and analyzed with the Biacore T200 Evaluation Software (v3.1) or on a Biacore 8K+ instrument (Cytiva Life Sciences) using the Biacore 8K+ Control Software and analyzed with the Biacore Insight Evaluation Software (v3.0). […] Measurements to cynomolgus monkey CD38 were performed on Series S CM5 Sensor Chips (Cytiva Life Sciences, catalog NO: BR100530) previously immobilized with anti-histidine antibody (Cytiva Life Sciences, catalog NO: 28995056). […] Dissociation was monitored for 5 to 10 min.

[2] = biological target: T3, recombinant cynomolgus monkey CD38-ECD-C-his protein (cynomolgus monkey, UniProt Q5VAN0 45-301); experiment: SPR, Fab as analyte, captured cynomolgus CD38-his
T3 construct: made in house; Q5VAN0 residues 43-301 (residue 44 deleted) with C-terminal 6-His; also called cynomolgus monkey CD38-C-His; recombinant cynomolgus monkey CD38 protein
Protocol: as §1

[3] = biological target: T1, recombinant human BCMA protein …; experiment: SPR, Fab as analyte, immobilised human BCMA, 1:1 Langmuir
Protocol: Surface plasmon resonance (SPR) was used to measure the binding affinities of the Fab fragments for human and cynomolgus monkey BCMA. Affinities were measured on a Biacore T200 instrument (Cytiva Life Sciences) at 25° C. and analyzed with the Biacore T200 Evaluation Software (v3.1). Measurements were performed on Series S CM5 Sensor Chips (Cytiva Life Sciences, catalog NO: BR100530). Recombinant human BCMA protein (Acrobiosystems, catalog NO: BCA-H522y) and recombinant cynomolgus monkey BCMA protein (Acrobiosystems, catalog NO: BCA-C52H7) were covalently immobilized to around 200 RU on flow-path 2 and flow-path 3 respectively of the Sensor Chip surface using a commercially available amine coupling kit (Cytiva Life Sciences, catalog NO: BR100050). […] Dissociation was monitored for 5 min. After each cycle, the Series S CM5 Sensor Chip surface coated with recombinant BCMA proteins was regenerated with 30 μl of 10 mM Glycine pH 1.5 (Cytiva Life Sciences, catalog NO: BR100354). Experimental data were processed using the 1:1 Langmuir kinetic fitting model. Measurements included zero-concentration samples for referencing. Chi², U- and residual values were used to evaluate the quality of a fit between the experimental data and individual binding models.

Binder	Kd [1]	Kd [2]	Kd [3]
B1	17.6 nM	24.5 nM	
B2	5.2 nM	4.2 nM	
B3			214 nM
B4			318 nM
B5	38.4 nM	62.5 nM	
B6	5.4 nM	25 nM	
B7	10.5 nM	26.3 nM	
B8	15.3 nM	17.9 nM	
B9	6.2 nM	22.7 nM	
B10	5.8 nM	14.6 nM	
B11	10 nM	9.6 nM	
B12	2 nM	8.9 nM	
B13	8.2 nM	17.3 nM	
